US8703915B2, “Mutant proteins and methods for producing them” (Heptares Therapeutics Limited, priority 2009, dated 2014)

What was measured:
5HT2C receptor = assay: Antagonist binding to 5HT2C NPxxY motif alanine mutants (Table 1); design: species or system human; Average / Average - BG: unit not given here; conditions: for % of Wildtype binding / DPM1 / DPM2: antagonist Mesulergine binding; for DPM1: replicate 1; for DPM2: replicate 2; for Average - BG: average minus background; for Average: average of DPM1 and DPM2
Procedure: (§1) An alanine scan was carried out in a similar fashion on an adenosine A2A receptor along with the 5HT2C receptor in the presence of the antagonist Mesulergine. Both alanine scans were carried out in order to further stabilize the antagonist conformation. […] The motif in Adenosine A2A is NPFIY (SEQ ID NO: 364) and for the 5HT2C is NPLVY (SEQ ID NO: 363). Therefore mutations in this region of the receptor contain stabilising mutations specific to the agonist conformation and detrimentally effect antagonist binding.
5HT2C receptor was solubilised from transiently transfected mammalian cells about 40 hours post transfection, in 50 mM Hepes pH7.4/100 mM KCl/0.5% DDM/(0.1% CHS/0.6% CHAPS was added to cells for SCH23390 agonist assay) and protease inhibitor. Cell lysates were left at 4° C. on a rotator and then cleared by centrifugation at 13,200 rpm for 20 minutes at 4° C. Thermostability analysis was performed directly on the soluble lysate. The Tm was determined by incubating 108 μl of the lysate with [N^6-methyl-^3H]Mesulergine radioligand at a final concentration of 17 nM or 9 nM [^3H]SCH23390 for one hour at 4° C. The six ligand incubations are then incubated at six different temperatures from 25° C. to 55° C., for thirty minutes. Receptor bound and free radioligand were separated using G25 Sephadex spin columns.

adenosine A2A receptor = assay: Antagonist binding to adenosine A2A NPxxY motif alanine mutants (Table 1); design: species or system human; conditions: for % of Wildtype binding / DPM1 / DPM2: antagonist binding; for DPM1: replicate 1; for DPM2: replicate 2; for Average - BG: average minus background; for Average: average of DPM1 and DPM2
Procedure: as §1
Adenosine A2A receptor was solubilised from transiently transfected mammalian cells about 36 hours post transfection, in 50 mM Tris pH7.4/400 mM NaCl/0.5% DDM and protease inhibitor. Cell lysates were left at 4° C. on a rotator and then cleared by centrifugation at 13,200 rpm for 20 minutes at 4° C. Solubilised receptors were then purified on Ni-NTA beads and eluted with 50 mM histidine. The eluted receptor was used in radioligand binding assay. The Tm was determined by incubating 108 μl of the eluate with Zm241385 radioligand at a final concentration of 100 nM for one hour at 4° C. The six ligand incubations are then incubated at six different temperatures from 20° C. to 50° C., for thirty minutes. Receptor bound and free radioligand were separated using G25 Sephadex spin columns.

B1: V367A: 5HT2C receptor NPLVY motif mutant V367A (protein, UniProt P28335 33-458, looked up, variant V367A)
5-hydroxytryptamine receptor …: IVTDIFNTSDGGRFKFPDGVQNWPALSIVIIIIMTIGGNILVIMAVSMEKKLHNATNYFLMSLAIADMLVGLLVMPLSLLAILYDYVWPLPRYLCPVWISLDVLFSTASIMHLCAISLDRYVAIRNPIEHSRFNSRTKAIMKIAIVWAISIGVSVPIPVIGLRDEEKVFVNNTTCVLNDPNFVLIGSFVAFFIPLTIMVITYCLTIYVLRRQALMLLHGHTEEPPGLSLDFLKCCKRNTAEEENSANPNQDQNARRRKKKERRPRGTMQAINNERKASKVLGIVFFVFLIMWCPFFITNILSVLCEKSCNQKLMEKLLNVFVWIGYVCSGINPLAYTLFNKIYRRAFSNYLRCNYKVEKKPPVRQIPRVAATALSGRELNVNIYRHTNEPVIEKASDNEPGIEMQVENLELPVNPSSVVSERISSV
B1 was tested. Which “% of Wildtype binding” value (5HT2C receptor) did it give?
The value was 22.25%.

And the DPM1 (5HT2C receptor)?
Its DPM1 is 2512 DPM.

What about the DPM2 (5HT2C receptor) of the same molecule?
The DPM2 was 2449 DPM.

And the “Average - BG” value (5HT2C receptor)?
Its value is 2049.

What about the Average (5HT2C receptor) of the same molecule?
Its Average is 2480.5.

B2: N364A: 5HT2C receptor NPLVY motif mutant N364A (protein, UniProt P28335 33-458, looked up, variant N364A)
5-hydroxytryptamine receptor …: IVTDIFNTSDGGRFKFPDGVQNWPALSIVIIIIMTIGGNILVIMAVSMEKKLHNATNYFLMSLAIADMLVGLLVMPLSLLAILYDYVWPLPRYLCPVWISLDVLFSTASIMHLCAISLDRYVAIRNPIEHSRFNSRTKAIMKIAIVWAISIGVSVPIPVIGLRDEEKVFVNNTTCVLNDPNFVLIGSFVAFFIPLTIMVITYCLTIYVLRRQALMLLHGHTEEPPGLSLDFLKCCKRNTAEEENSANPNQDQNARRRKKKERRPRGTMQAINNERKASKVLGIVFFVFLIMWCPFFITNILSVLCEKSCNQKLMEKLLNVFVWIGYVCSGIAPLVYTLFNKIYRRAFSNYLRCNYKVEKKPPVRQIPRVAATALSGRELNVNIYRHTNEPVIEKASDNEPGIEMQVENLELPVNPSSVVSERISSV
Which results are given for B2?
% of Wildtype binding (5HT2C receptor): 36.35%; DPM1 (5HT2C receptor): 3988 DPM; DPM2 (5HT2C receptor): 3569 DPM; Average - BG (5HT2C receptor): 3347; Average (5HT2C receptor): 3778.5

B3: Y368A: 5HT2C receptor NPLVY motif mutant Y368A (protein, UniProt P28335 33-458, looked up, variant Y368A)
5-hydroxytryptamine receptor …: IVTDIFNTSDGGRFKFPDGVQNWPALSIVIIIIMTIGGNILVIMAVSMEKKLHNATNYFLMSLAIADMLVGLLVMPLSLLAILYDYVWPLPRYLCPVWISLDVLFSTASIMHLCAISLDRYVAIRNPIEHSRFNSRTKAIMKIAIVWAISIGVSVPIPVIGLRDEEKVFVNNTTCVLNDPNFVLIGSFVAFFIPLTIMVITYCLTIYVLRRQALMLLHGHTEEPPGLSLDFLKCCKRNTAEEENSANPNQDQNARRRKKKERRPRGTMQAINNERKASKVLGIVFFVFLIMWCPFFITNILSVLCEKSCNQKLMEKLLNVFVWIGYVCSGINPLVATLFNKIYRRAFSNYLRCNYKVEKKPPVRQIPRVAATALSGRELNVNIYRHTNEPVIEKASDNEPGIEMQVENLELPVNPSSVVSERISSV
For B3, which “% of Wildtype binding” value (5HT2C receptor) is on record?
The value was 11.22%.

And the DPM1 (5HT2C receptor)?
Its DPM1 is 1328 DPM.

What about the DPM2 (5HT2C receptor) of the same molecule?
The DPM2 was 1602 DPM.

What about the “Average - BG” value (5HT2C receptor) of the same molecule?
The value was 1033.5.

And the Average (5HT2C receptor)?
The Average was 1465.

B4: P365A: 5HT2C receptor NPLVY motif mutant P365A (protein, UniProt P28335 33-458, looked up, variant P365A)
5-hydroxytryptamine receptor …: IVTDIFNTSDGGRFKFPDGVQNWPALSIVIIIIMTIGGNILVIMAVSMEKKLHNATNYFLMSLAIADMLVGLLVMPLSLLAILYDYVWPLPRYLCPVWISLDVLFSTASIMHLCAISLDRYVAIRNPIEHSRFNSRTKAIMKIAIVWAISIGVSVPIPVIGLRDEEKVFVNNTTCVLNDPNFVLIGSFVAFFIPLTIMVITYCLTIYVLRRQALMLLHGHTEEPPGLSLDFLKCCKRNTAEEENSANPNQDQNARRRKKKERRPRGTMQAINNERKASKVLGIVFFVFLIMWCPFFITNILSVLCEKSCNQKLMEKLLNVFVWIGYVCSGINALVYTLFNKIYRRAFSNYLRCNYKVEKKPPVRQIPRVAATALSGRELNVNIYRHTNEPVIEKASDNEPGIEMQVENLELPVNPSSVVSERISSV
Which results are given for B4?
% of Wildtype binding (5HT2C receptor): 14.94%; DPM1 (5HT2C receptor): 1855 DPM; DPM2 (5HT2C receptor): 1760 DPM; Average - BG (5HT2C receptor): 1376; Average (5HT2C receptor): 1807.5

B5: P285A: adenosine A2A receptor NPFIY motif mutant P285A (protein, UniProt P29274 1-412, looked up, variant P285A)
Adenosine receptor A2a: MPIMGSSVYITVELAIAVLAILGNVLVCWAVWLNSNLQNVTNYFVVSLAAADIAVGVLAIPFAITISTGFCAACHGCLFIACFVLVLTQSSIFSLLAIAIDRYIAIRIPLRYNGLVTGTRAKGIIAICWVLSFAIGLTPMLGWNNCGQPKEGKNHSQGCGEGQVACLFEDVVPMNYMVYFNFFACVLVPLLLMLGVYLRIFLAARRQLKQMESQPLPGERARSTLQKEVHAAKSLAIIVGLFALCWLPLHIINCFTFFCPDCSHAPLWLMYLAIVLSHTNSVVNAFIYAYRIREFRQTFRKIIRSHVLRQQEPFKAAGTSARVLAAHGSDGEQVSLRLNGHPPGVWANGSAPHPERRPNGYALGLVSGGSAQESQGNTGLPDVELLSHELKGVCPEPPGLDDPLAQDGAGVS
For B5, which “% of Wildtype binding” value (adenosine A2A receptor) is on record?
The value was 7.69%.

And the DPM1 (adenosine A2A receptor)?
The DPM1 was 1488 DPM.

What about the DPM2 (adenosine A2A receptor) of the same molecule?
Its DPM2 is 1471 DPM.

What about the “Average - BG” value (adenosine A2A receptor) of the same molecule?
Its value is 979.5.

And the Average (adenosine A2A receptor)?
The Average was 1479.5.

B6: Y288A: adenosine A2A receptor NPFIY motif mutant Y288A (protein, UniProt P29274 1-412, looked up, variant Y288A)
Adenosine receptor A2a: MPIMGSSVYITVELAIAVLAILGNVLVCWAVWLNSNLQNVTNYFVVSLAAADIAVGVLAIPFAITISTGFCAACHGCLFIACFVLVLTQSSIFSLLAIAIDRYIAIRIPLRYNGLVTGTRAKGIIAICWVLSFAIGLTPMLGWNNCGQPKEGKNHSQGCGEGQVACLFEDVVPMNYMVYFNFFACVLVPLLLMLGVYLRIFLAARRQLKQMESQPLPGERARSTLQKEVHAAKSLAIIVGLFALCWLPLHIINCFTFFCPDCSHAPLWLMYLAIVLSHTNSVVNPFIAAYRIREFRQTFRKIIRSHVLRQQEPFKAAGTSARVLAAHGSDGEQVSLRLNGHPPGVWANGSAPHPERRPNGYALGLVSGGSAQESQGNTGLPDVELLSHELKGVCPEPPGLDDPLAQDGAGVS
With B6 as the molecule, how does the “% of Wildtype binding” value (adenosine A2A receptor) read?
The value was 14.74%.

What about the DPM1 (adenosine A2A receptor) of the same molecule?
The DPM1 was 2150 DPM.

And the DPM2 (adenosine A2A receptor)?
Its DPM2 is 2602 DPM.

What about the “Average - BG” value (adenosine A2A receptor) of the same molecule?
The value was 1876.

What about the Average (adenosine A2A receptor) of the same molecule?
Its Average is 2376.

B7: F286A: adenosine A2A receptor NPFIY motif mutant F286A (protein, UniProt P29274 1-412, looked up, variant F286A)
Adenosine receptor A2a: MPIMGSSVYITVELAIAVLAILGNVLVCWAVWLNSNLQNVTNYFVVSLAAADIAVGVLAIPFAITISTGFCAACHGCLFIACFVLVLTQSSIFSLLAIAIDRYIAIRIPLRYNGLVTGTRAKGIIAICWVLSFAIGLTPMLGWNNCGQPKEGKNHSQGCGEGQVACLFEDVVPMNYMVYFNFFACVLVPLLLMLGVYLRIFLAARRQLKQMESQPLPGERARSTLQKEVHAAKSLAIIVGLFALCWLPLHIINCFTFFCPDCSHAPLWLMYLAIVLSHTNSVVNPAIYAYRIREFRQTFRKIIRSHVLRQQEPFKAAGTSARVLAAHGSDGEQVSLRLNGHPPGVWANGSAPHPERRPNGYALGLVSGGSAQESQGNTGLPDVELLSHELKGVCPEPPGLDDPLAQDGAGVS
How did the “% of Wildtype binding” value (adenosine A2A receptor) turn out when B7 was run?
Its value is 0.13%.

And the DPM1 (adenosine A2A receptor)?
The DPM1 was 519 DPM.

And the DPM2 (adenosine A2A receptor)?
The DPM2 was 514 DPM.

And the “Average - BG” value (adenosine A2A receptor)?
Its value is 16.5.

What about the Average (adenosine A2A receptor) of the same molecule?
Its Average is 516.5.

B8: 287A: adenosine A2A receptor NPFIY motif mutant, residue 287 to alanine (protein, UniProt P29274 1-412, looked up, variant I287A)
Adenosine receptor A2a: MPIMGSSVYITVELAIAVLAILGNVLVCWAVWLNSNLQNVTNYFVVSLAAADIAVGVLAIPFAITISTGFCAACHGCLFIACFVLVLTQSSIFSLLAIAIDRYIAIRIPLRYNGLVTGTRAKGIIAICWVLSFAIGLTPMLGWNNCGQPKEGKNHSQGCGEGQVACLFEDVVPMNYMVYFNFFACVLVPLLLMLGVYLRIFLAARRQLKQMESQPLPGERARSTLQKEVHAAKSLAIIVGLFALCWLPLHIINCFTFFCPDCSHAPLWLMYLAIVLSHTNSVVNPFAYAYRIREFRQTFRKIIRSHVLRQQEPFKAAGTSARVLAAHGSDGEQVSLRLNGHPPGVWANGSAPHPERRPNGYALGLVSGGSAQESQGNTGLPDVELLSHELKGVCPEPPGLDDPLAQDGAGVS
How did the “% of Wildtype binding” value (adenosine A2A receptor) turn out when B8 was run?
Its value is 2.78%.

What about the DPM1 (adenosine A2A receptor) of the same molecule?
The DPM1 was 888 DPM.

And the DPM2 (adenosine A2A receptor)?
Its DPM2 is 820 DPM.

What about the “Average - BG” value (adenosine A2A receptor) of the same molecule?
Its value is 354.

What about the Average (adenosine A2A receptor) of the same molecule?
Its Average is 854.
